According to PMC8413284:

Key:
[1] = biological target: recombinant human FcγRIIa (human) (UniProt P12318); experiment: SPR; R131 allotype
[2] = biological target: recombinant human FcγRI (human) (UniProt P12314); experiment: SPR
[3] = biological target: recombinant human FcγRIIIa (human) (UniProt P08637); experiment: SPR; F158 allotype
[4] = biological target: rituximab hIgG1 μtp pre-formed hexamer (human); experiment: SEC; SE-UHPLC after Protein A purification, against molecular weight controls; ACQUITY BEH200, 200 mM phosphate pH 7.0, 1 µg injected
[5] = biological target: rituximab hIgG1 μtp pre-formed hexamer (human); experiment: negative stain electron microscopy; antibody 10 μg/ml on grids, 2% uranyl acetate, x80,000
[6] = biological target: rituximab hIgG1 μtp pre-formed hexamer (human); experiment: SEC-MALS; 50 μg on Superdex 200 increase 10/300, PBS pH 7.4, 0.5 ml/minute; absolute molecular weight

Chain of UniProt P12318 (P12318 34-217): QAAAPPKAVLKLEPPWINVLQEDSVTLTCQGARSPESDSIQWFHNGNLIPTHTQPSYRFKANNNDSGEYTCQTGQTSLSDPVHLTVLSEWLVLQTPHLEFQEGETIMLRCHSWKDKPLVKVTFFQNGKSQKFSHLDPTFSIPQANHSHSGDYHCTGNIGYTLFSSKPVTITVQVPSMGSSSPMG
Chain of UniProt P12314 (P12314 16-292): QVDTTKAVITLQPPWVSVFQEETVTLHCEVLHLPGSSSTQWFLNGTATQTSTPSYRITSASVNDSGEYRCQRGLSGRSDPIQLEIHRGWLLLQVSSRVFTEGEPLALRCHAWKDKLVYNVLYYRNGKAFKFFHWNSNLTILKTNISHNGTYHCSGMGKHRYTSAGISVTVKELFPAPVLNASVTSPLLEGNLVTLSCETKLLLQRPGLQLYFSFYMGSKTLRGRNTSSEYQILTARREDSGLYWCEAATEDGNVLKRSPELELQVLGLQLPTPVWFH
Chain of UniProt P08637 (P08637 17-208): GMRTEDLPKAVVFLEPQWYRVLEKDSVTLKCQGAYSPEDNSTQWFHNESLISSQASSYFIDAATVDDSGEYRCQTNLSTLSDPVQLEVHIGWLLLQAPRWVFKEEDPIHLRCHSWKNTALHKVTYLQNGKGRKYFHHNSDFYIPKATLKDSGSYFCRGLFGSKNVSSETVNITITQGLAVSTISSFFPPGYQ

| Substance | Kd [1] [nM] | Kd [2] [nM] | Kd [3] [nM] | stoichiometry N [4] | stoichiometry N [5] | stoichiometry N [6] |
| --- | --- | --- | --- | --- | --- | --- |
| rituximab hIgG1 wild-type | 935 | 4.36 | 719 | – | – | – |
| rituximab hIgG1 μtp pre-formed hexamer | 964 | 7.53 | 410 | – | – | – |
| rituximab hIgG1 μtp pre-formed hexamer (antibody) | – | – | – | 6 | 6 | 6 |
